Publication PMC8657803, “Structural Insight into the Binding of TGIF1 to SIN3A PAH2 Domain through a C-Terminal Amphipathic Helix” (International Journal of Molecular Sciences, 2021)

Target: T1, TGIF1_(256–401), recombinant truncation covering RD2 (human, UniProt Q15583-1 256-401)
T1 construct: two additional residues left at the N-terminus after thrombin removal of the purification tag; 15N-labelled in the NMR titration; also called TGIF1 RD2 truncation; TGIF1 M256–A401
Test: NMR titration; 0.1 mM 15N-labelled TGIF1 truncation mixed with non-labelled SIN3A PAH2 at molar ratios 1:0 to 1:2; 1H-15N HSQC; 20 mM HEPES, 80 mM NaCl, 2 mM DTT, 0.05% NaN3, pH 6.4, 90% H2O/10% D2O; 293 K (25 °C) as printed
Settings: both partners purified

T1 sequence (Q15583 other isoform, or with tags, fused parts or gaps): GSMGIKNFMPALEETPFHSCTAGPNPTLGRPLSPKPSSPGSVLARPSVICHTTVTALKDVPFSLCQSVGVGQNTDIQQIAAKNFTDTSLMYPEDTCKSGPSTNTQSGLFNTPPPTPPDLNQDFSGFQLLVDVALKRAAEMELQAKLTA

B1: SIN3A PAH2 (residues S295–N384), recombinant (domain or fragment, human, UniProt Q96ST3 295-384, looked up)
chain: SLQNNQPVEFNHAINYVNKIKNRFQGQPDIYKAFLEILHTYQKEQRNAKEAGGNYTPALTEQEVYAQVARLFKNQEDLLSEFGQFLPDAN
notes: SIN3A, human, paired amphipathic helix domain 2 (PAH2), residues S295-N384; Non-labelled
- binding result: binds
